Earlier results in publication PMC8509922.
Several values for one entry are separate records, joined by “and”; a condition that tells them apart may be missing. Equal entries are not always repeated. Where two headings read alike, the source gives them in different places.

How the values were obtained:
Acvr1 (Homo sapiens) [1] = molecular target: Acvr1 (Homo sapiens) (UniProt Q04771)
BmpR1 (Homo sapiens) [2] = molecular target: BmpR1 (Homo sapiens) (UniProt P36894)
BmpR1 (Homo sapiens) [3] = molecular target: BmpR1 (Homo sapiens) (UniProt P36894); remark: listed apart in the source
Acvr1 (Homo sapiens) [4] = molecular target: Acvr1 (Homo sapiens) (UniProt Q04771); remark: listed apart in the source

UniProt Q04771, sequence (Q04771 21-123): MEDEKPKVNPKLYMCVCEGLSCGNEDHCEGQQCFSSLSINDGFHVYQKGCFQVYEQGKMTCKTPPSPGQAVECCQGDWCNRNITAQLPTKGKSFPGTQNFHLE
UniProt P36894, sequence (P36894 24-152): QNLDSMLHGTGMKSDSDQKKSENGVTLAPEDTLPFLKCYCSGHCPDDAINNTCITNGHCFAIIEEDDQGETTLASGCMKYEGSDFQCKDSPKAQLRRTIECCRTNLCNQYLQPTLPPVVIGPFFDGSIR

In the case of “Bmp2/7 heterodimer (from UniProt P12643)”, the Kd (Acvr1 (Homo sapiens) [1]) is given as 512 nM and 1020 nM.

For Bmp2 (from UniProt P12643), the Kd (BmpR1 (Homo sapiens) [2]) is given as 0.8 nM.

For Bmp7 (from UniProt P18075), the Kd (BmpR1 (Homo sapiens) [3]) is given as 56 nM and the Kd (Acvr1 (Homo sapiens) [4]) is given as 500 nM.
